Laboratory results reported in US20250145680A1 (REMD BIOTHERAPEUTICS, published 2025).

T1: Type I IFN receptor (IFNAR) (UniProt P17181 28-557; P48551 27-515, limits assumed)
T1 sequence (looked up) 1: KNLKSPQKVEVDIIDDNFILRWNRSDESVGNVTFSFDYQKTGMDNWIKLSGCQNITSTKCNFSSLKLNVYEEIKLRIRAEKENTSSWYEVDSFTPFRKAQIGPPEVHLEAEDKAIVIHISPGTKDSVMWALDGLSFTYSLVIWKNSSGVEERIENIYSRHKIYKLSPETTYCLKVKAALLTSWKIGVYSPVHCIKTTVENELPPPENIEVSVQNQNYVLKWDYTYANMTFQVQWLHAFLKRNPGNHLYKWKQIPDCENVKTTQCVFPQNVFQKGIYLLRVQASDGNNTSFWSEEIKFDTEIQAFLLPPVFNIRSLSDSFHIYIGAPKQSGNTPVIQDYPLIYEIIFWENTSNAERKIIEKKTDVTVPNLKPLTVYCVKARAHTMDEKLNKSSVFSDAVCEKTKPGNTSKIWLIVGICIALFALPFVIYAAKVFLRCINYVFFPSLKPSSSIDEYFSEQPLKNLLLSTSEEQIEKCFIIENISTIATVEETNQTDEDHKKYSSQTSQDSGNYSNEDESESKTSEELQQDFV
T1 sequence (looked up) 2: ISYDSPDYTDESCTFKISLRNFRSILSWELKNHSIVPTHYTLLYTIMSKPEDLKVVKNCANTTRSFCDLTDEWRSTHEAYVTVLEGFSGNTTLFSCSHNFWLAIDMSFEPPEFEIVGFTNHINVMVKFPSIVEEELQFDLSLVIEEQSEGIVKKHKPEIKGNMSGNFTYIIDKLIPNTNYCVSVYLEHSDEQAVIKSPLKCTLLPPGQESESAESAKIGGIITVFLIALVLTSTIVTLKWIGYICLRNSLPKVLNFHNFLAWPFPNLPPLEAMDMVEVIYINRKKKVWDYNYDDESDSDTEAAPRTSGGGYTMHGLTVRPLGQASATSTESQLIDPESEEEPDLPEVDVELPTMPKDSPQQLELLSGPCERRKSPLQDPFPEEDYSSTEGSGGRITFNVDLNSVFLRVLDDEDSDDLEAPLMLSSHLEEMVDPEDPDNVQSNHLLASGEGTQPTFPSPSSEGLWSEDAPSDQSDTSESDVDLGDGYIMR


Target: T1, Type I IFN receptor (IFNAR)
Test: cell-based or functional assay

Row | Binder | EC50 ratio1 (EC50 of FP/EC50 of IFN-α2b) on PD-L1-negative cells; IFN-α reporter assay (SEAP), PD-L1 blocked with REMD290 [fold]
1 | anti-PD-L1 Ab-con-IFN-α heterodimeric fusion molecule (FP-19), con-IFN-α (R150A), G8 linker (other) light: DIQMTQSPSSVSASVGDRVTITCKTSQDVNTAVAWYQQKPGQAPRLLIYWASTRHTGVPDRFSGSGSGTDFTLTISSLQAEDVAVYYCQQHYNTPLTFGGGTKLEIKRTVAAPSVFIFPPSDEQLKSGTASVVCLLNNFYPREAKVQWKVDNALQSGNSQESVTEQDSKDSTYSLSSTLTLSKADYEKHKVYACEVTHQGLSSPVTKSFNRGEC heavy 1: QMQLVQSGAEVKKTGSSVKVSCKASGYTFTSYSINWVRQAPGKGLEWVAYFYVGNGYTDYNEKFKGRVTMTRDTSTSTVYMELSSLRSEDTAVYYCARGGLPYYFDYWGQGTLVTVSSASTKGPSVFPLAPCSRSTSESTAALGCLVKDYFPEPVTVSWNSGALTSGVHTFPAVLQSSGLYSLSSVVTVPSSSLGTKTYTCNVDHKPSNTKVDKRVESKYGPPCPPCPAPEFLGGPSVFLFPPKPKDTLMISRTPEVTCVVVDVSQEDPEVQFNWYVDGVEVHNAKTKPREEQFNSTYRVVSVLTVLHQDWLNGKEYKCKVSNKGLPSSIEKTISKAKGQPREPQVCTLPPSQEEMTKNQVSLSCAVKGFYPSDIAVEWESNGQPENNYKTTPPVLDSDGSFFLVSRLTVDKSRWQEGNVFSCSVMHEALHNHYTQKSLSLSLGGGGGGGGGCDLPQTHSLGNRRALILLAQMRRISPFSCLKDRHDFGFPQEEFDGNQFQKAQAISVLHEMIQQTFNLFSTKDSSAAWDESLLEKFYTELYQQLNDLEACVIQEVGVEETPLMNVDSILAVKKYFQRITLYLTEKKYSPCAWEVVRAEIMASFSLSTNLQERLRRKE heavy 2: QMQLVQSGAEVKKTGSSVKVSCKASGYTFTSYSINWVRQAPGKGLEWVAYFYVGNGYTDYNEKFKGRVTMTRDTSTSTVYMELSSLRSEDTAVYYCARGGLPYYFDYWGQGTLVTVSSASTKGPSVFPLAPCSRSTSESTAALGCLVKDYFPEPVTVSWNSGALTSGVHTFPAVLQSSGLYSLSSVVTVPSSSLGTKTYTCNVDHKPSNTKVDKRVESKYGPPCPPCPAPEFLGGPSVFLFPPKPKDTLMISRTPEVTCVVVDVSQEDPEVQFNWYVDGVEVHNAKTKPREEQFNSTYRVVSVLTVLHQDWLNGKEYKCKVSNKGLPSSIEKTISKAKGQPREPQVYTLPPCQEEMTKNQVSLWCLVKGFYPSDIAVEWESNGQPENNYKTTPPVLDSDGSFFLYSRLTVDKSRWQEGNVFSCSVMHEALHNHYTQKSLSLSLG | 33.9
2 | anti-PD-L1 Ab-con-IFN-α heterodimeric fusion molecule (FP-20), con-IFN-α (A146D and R150A), G8 linker (other) light: DIQMTQSPSSVSASVGDRVTITCKTSQDVNTAVAWYQQKPGQAPRLLIYWASTRHTGVPDRFSGSGSGTDFTLTISSLQAEDVAVYYCQQHYNTPLTFGGGTKLEIKRTVAAPSVFIFPPSDEQLKSGTASVVCLLNNFYPREAKVQWKVDNALQSGNSQESVTEQDSKDSTYSLSSTLTLSKADYEKHKVYACEVTHQGLSSPVTKSFNRGEC heavy 1: QMQLVQSGAEVKKTGSSVKVSCKASGYTFTSYSINWVRQAPGKGLEWVAYFYVGNGYTDYNEKFKGRVTMTRDTSTSTVYMELSSLRSEDTAVYYCARGGLPYYFDYWGQGTLVTVSSASTKGPSVFPLAPCSRSTSESTAALGCLVKDYFPEPVTVSWNSGALTSGVHTFPAVLQSSGLYSLSSVVTVPSSSLGTKTYTCNVDHKPSNTKVDKRVESKYGPPCPPCPAPEFLGGPSVFLFPPKPKDTLMISRTPEVTCVVVDVSQEDPEVQFNWYVDGVEVHNAKTKPREEQFNSTYRVVSVLTVLHQDWLNGKEYKCKVSNKGLPSSIEKTISKAKGQPREPQVCTLPPSQEEMTKNQVSLSCAVKGFYPSDIAVEWESNGQPENNYKTTPPVLDSDGSFFLVSRLTVDKSRWQEGNVFSCSVMHEALHNHYTQKSLSLSLGGGGGGGGGCDLPQTHSLGNRRALILLAQMRRISPFSCLKDRHDFGFPQEEFDGNQFQKAQAISVLHEMIQQTFNLFSTKDSSAAWDESLLEKFYTELYQQLNDLEACVIQEVGVEETPLMNVDSILAVKKYFQRITLYLTEKKYSPCAWEVVRDEIMASFSLSTNLQERLRRKE heavy 2: QMQLVQSGAEVKKTGSSVKVSCKASGYTFTSYSINWVRQAPGKGLEWVAYFYVGNGYTDYNEKFKGRVTMTRDTSTSTVYMELSSLRSEDTAVYYCARGGLPYYFDYWGQGTLVTVSSASTKGPSVFPLAPCSRSTSESTAALGCLVKDYFPEPVTVSWNSGALTSGVHTFPAVLQSSGLYSLSSVVTVPSSSLGTKTYTCNVDHKPSNTKVDKRVESKYGPPCPPCPAPEFLGGPSVFLFPPKPKDTLMISRTPEVTCVVVDVSQEDPEVQFNWYVDGVEVHNAKTKPREEQFNSTYRVVSVLTVLHQDWLNGKEYKCKVSNKGLPSSIEKTISKAKGQPREPQVYTLPPCQEEMTKNQVSLWCLVKGFYPSDIAVEWESNGQPENNYKTTPPVLDSDGSFFLYSRLTVDKSRWQEGNVFSCSVMHEALHNHYTQKSLSLSLG | 1140
